Laboratory results from patent US20240360227A1.

How the values were obtained:
[1] = biological target: Recombinant human his-tagged IGF R extracellular domain protein (human) (UniProt P08069); test: SPR, Ab captured via anti-huIgG Fc, pH 7.4
[2] = biological target: Recombinant human his-tagged IGF R extracellular domain protein (human) (UniProt P08069); test: SPR, Ab captured via anti-huIgG Fc, dissociation at pH 6

Binder	Kd [1]	koff [1]	kon [1]	Kd [2]	koff [2]	kon [2]
VRDN-02072 (antibody, V domains shown) VH: QVQLQESGPGLVKPSETLSLTCTVSGYSITGGYLWNWIRQPPGKGLEWIGYIHYDGTNNYKPSLKDRVTISRDTSKNQFSLKLSSVTAADTAVYYCARHGRVFFDYWGQGTLVTVSS VL: DIVMTQSPLSLPVTPGEPASISCRSHQSIVHSNGNTYLQWYLQKPGQSPQLLIYKVSNRLYGVPDRFSGSGSGTDFTLKISRVEAEDVGVYYCFQGSHVHWTFGQGTKVEIK	0.281 nM	3.57e-05 s⁻¹	127000 M⁻¹ s⁻¹	0.269 nM	5.3e-05 s⁻¹	197000 M⁻¹ s⁻¹
VRDN-02006 (antibody, V domains shown) VH: QVQLQESGPGLVKPSETLSLTCTVSGYSITHGYLWNWIRQPPGKGLEWIGYISYDGTNNYKPSLKDRVTISRDTSKNQFSLKLSSVTAADTAVYYCARYGRVFFDYWGQGTLVTVSS VL: DIVMTQSPLSLPVTPGEPASISCRSSQSIVHSNGNTYLQWYLQKPGQSPQLLIYKVSNRLYGVPDRFSGSGSGTDFTLKISRVEAEDVGVYYCFQGSHVPWTFGQGTKVEIK	1.08 nM	8.49e-05 s⁻¹	78500 M⁻¹ s⁻¹	1.1 nM	0.000101 s⁻¹	92300 M⁻¹ s⁻¹
VRDN-02007 (antibody, V domains shown) VH: QVQLQESGPGLVKPSETLSLTCTVSGYSITGHYLWNWIRQPPGKGLEWIGYISYDGTNNYKPSLKDRVTISRDTSKNQFSLKLSSVTAADTAVYYCARYGRVFFDYWGQGTLVTVSS VL: DIVMTQSPLSLPVTPGEPASISCRSSQSIVHSNGNTYLQWYLQKPGQSPQLLIYKVSNRLYGVPDRFSGSGSGTDFTLKISRVEAEDVGVYYCFQGSHVPWTFGQGTKVEIK	12.8 nM	0.000743 s⁻¹	58000 M⁻¹ s⁻¹	10.2 nM	0.00188 s⁻¹	184000 M⁻¹ s⁻¹
VRDN-02074 (antibody, V domains shown) VH: QVQLQESGPGLVKPSETLSLTCTVSGYSITGGYLWNWIRQPPGKGLEWIGYISYHGTNNYKPSLKDRVTISRDTSKNQFSLKLSSVTAADTAVYYCARHGRVFFDYWGQGTLVTVSS VL: DIVMTQSPLSLPVTPGEPASISCRSHQSIVHSNGNTYLQWYLQKPGQSPQLLIYKVSNRLYGVPDRFSGSGSGTDFTLKISRVEAEDVGVYYCFHGSHVPWTFGQGTKVEIK	0.301 nM	3.98e-05 s⁻¹	132000 M⁻¹ s⁻¹	0.25 nM	5.81e-05 s⁻¹	232000 M⁻¹ s⁻¹
VRDN-02073 (antibody, V domains shown) VH: QVQLQESGPGLVKPSETLSLTCTVSGYSITGGYLWNWIRQPPGKGLEWIGYIHYDGTNNYKPSLKDRVTISRDTSKNQFSLKLSSVTAADTAVYYCARHGRVFFDYWGQGTLVTVSS VL: DIVMTQSPLSLPVTPGEPASISCRSHQSIVHSNGNTYLQWYLQKPGQSPQLLIYKVSNRLYGVPDRFSGSGSGTDFTLKISRVEAEDVGVYYCFQGSHVPHTFGQGTKVEIK	0.261 nM	3.13e-05 s⁻¹	120000 M⁻¹ s⁻¹	0.267 nM	4.77e-05 s⁻¹	179000 M⁻¹ s⁻¹
VRDN-02061 (antibody, V domains shown) VH: QVQLQESGPGLVKPSETLSLTCTVSGYSITGGYLWNWIRQPPGKGLEWIGYISYDGTNNYKPSLKDRVTISRDTSKNQFSLKLSSVTAADTAVYYCARHGRVFFDYWGQGTLVTVSS VL: DIVMTQSPLSLPVTPGEPASISCRSHQSIVHSNGNTYLQWYLQKPGQSPQLLIYKVSNRLYGVPDRFSGSGSGTDFTLKISRVEAEDVGVYYCFQGSHVPWTFGQGTKVEIK	0.28 nM	2.65e-05 s⁻¹	94700 M⁻¹ s⁻¹	0.299 nM	4.34e-05 s⁻¹	145000 M⁻¹ s⁻¹
VRDN-02066 (antibody, V domains shown) VH: QVQLQESGPGLVKPSETLSLTCTVSGYSITGGYLWNWIRQPPGKGLEWIGYISYHGTNNYKPSLKDRVTISRDTSKNQFSLKLSSVTAADTAVYYCARYGRVFFDYWGQGTLVTVSS VL: DIVMTQSPLSLPVTPGEPASISCRSSQSIVHSNGNTYLQWYLQKPGQSPQLLIYKVSNRLYGVPDRFSGSGSGTDFTLKISRVEAEDVGVYYCFQGSHVHWTFGQGTKVEIK	0.278 nM	3.12e-05 s⁻¹	112000 M⁻¹ s⁻¹	0.296 nM	5.14e-05 s⁻¹	174000 M⁻¹ s⁻¹
VRDN-02070 (antibody, V domains shown) VH: QVQLQESGPGLVKPSETLSLTCTVSGYSITGGYLWNWIRQPPGKGLEWIGYISYDGTNNYKPSLKDRVTISRDTSKNQFSLKLSSVTAADTAVYYCARHGRVFFDYWGQGTLVTVSS VL: DIVMTQSPLSLPVTPGEPASISCRSSQSIVHSNGNTYLQWYLQKPGQSPQLLIYKVSNRLYGVPDRFSGSGSGTDFTLKISRVEAEDVGVYYCFQGSHVPHTFGQGTKVEIK	0.322 nM	3.38e-05 s⁻¹	105000 M⁻¹ s⁻¹	0.335 nM	5.29e-05 s⁻¹	158000 M⁻¹ s⁻¹

The next binders have a lower Kd [1] than those just listed; values first:

Kd [1]	koff [1]	kon [1]	Kd [2]	koff [2]	kon [2]	Binder
0.249 nM	2.77e-05 s⁻¹	111000 M⁻¹ s⁻¹	0.394 nM	6.07e-05 s⁻¹	154000 M⁻¹ s⁻¹	VRDN-02060 (antibody, V domains shown) VH: QVQLQESGPGLVKPSETLSLTCTVSGYSITGGYLWNWIRQPPGKGLEWIGYISYHGTNNYKPSLKDRVTISRDTSKNQFSLKLSSVTAADTAVYYCARYGRVFFDYWGQGTLVTVSS VL: DIVMTQSPLSLPVTPGEPASISCRSHQSIVHSNGNTYLQWYLQKPGQSPQLLIYKVSNRLYGVPDRFSGSGSGTDFTLKISRVEAEDVGVYYCFQGSHVPWTFGQGTKVEIK
0.103 nM	1.09e-05 s⁻¹	105000 M⁻¹ s⁻¹	0.352 nM	6.64e-05 s⁻¹	189000 M⁻¹ s⁻¹	VRDN-02071 (antibody, V domains shown) VH: QVQLQESGPGLVKPSETLSLTCTVSGYSITGGYLWNWIRQPPGKGLEWIGYIHYDGTNNYKPSLKDRVTISRDTSKNQFSLKLSSVTAADTAVYYCARHGRVFFDYWGQGTLVTVSS VL: DIVMTQSPLSLPVTPGEPASISCRSHQSIVHSNGNTYLQWYLQKPGQSPQLLIYKVSNRLYGVPDRFSGSGSGTDFTLKISRVEAEDVGVYYCFHGSHVPWTFGQGTKVEIK
0.137 nM	1.52e-05 s⁻¹	111000 M⁻¹ s⁻¹	0.325 nM	5.59e-05 s⁻¹	172000 M⁻¹ s⁻¹	VRDN-02069 (antibody, V domains shown) VH: QVQLQESGPGLVKPSETLSLTCTVSGYSITGGYLWNWIRQPPGKGLEWIGYISYHGTNNYKPSLKDRVTISRDTSKNQFSLKLSSVTAADTAVYYCARYGRVFFDYWGQGTLVTVSS VL: DIVMTQSPLSLPVTPGEPASISCRSSQSIVHSNGNTYLQWYLQKPGQSPQLLIYKVSNRLYGVPDRFSGSGSGTDFTLKISRVEAEDVGVYYCFQGSHVPHTFGQGTKVEIK
0.235 nM	2.48e-05 s⁻¹	106000 M⁻¹ s⁻¹	0.145 nM	2.27e-05 s⁻¹	157000 M⁻¹ s⁻¹	VRDN-02064 (antibody, V domains shown) VH: QVQLQESGPGLVKPSETLSLTCTVSGYSITGGYLWNWIRQPPGKGLEWIGYISYDGTNNYKPSLKDRVTISRDTSKNQFSLKLSSVTAADTAVYYCARHGRVFFDYWGQGTLVTVSS VL: DIVMTQSPLSLPVTPGEPASISCRSSQSIVHSNGNTYLQWYLQKPGQSPQLLIYKVSNRLYGVPDRFSGSGSGTDFTLKISRVEAEDVGVYYCFHGSHVPWTFGQGTKVEIK
0.25 nM	2.75e-05 s⁻¹	110000 M⁻¹ s⁻¹	0.31 nM	5.44e-05 s⁻¹	175000 M⁻¹ s⁻¹	VRDN-02067 (antibody, V domains shown) VH: QVQLQESGPGLVKPSETLSLTCTVSGYSITGGYLWNWIRQPPGKGLEWIGYISYDGTNNYKPSLKDRVTISRDTSKNQFSLKLSSVTAADTAVYYCARHGRVFFDYWGQGTLVTVSS VL: DIVMTQSPLSLPVTPGEPASISCRSSQSIVHSNGNTYLQWYLQKPGQSPQLLIYKVSNRLYGVPDRFSGSGSGTDFTLKISRVEAEDVGVYYCFQGSHVHWTFGQGTKVEIK
0.249 nM	2.87e-05 s⁻¹	115000 M⁻¹ s⁻¹	0.376 nM	6.53e-05 s⁻¹	174000 M⁻¹ s⁻¹	VRDN-02068 (antibody, V domains shown) VH: QVQLQESGPGLVKPSETLSLTCTVSGYSITGGYLWNWIRQPPGKGLEWIGYIHYDGTNNYKPSLKDRVTISRDTSKNQFSLKLSSVTAADTAVYYCARYGRVFFDYWGQGTLVTVSS VL: DIVMTQSPLSLPVTPGEPASISCRSSQSIVHSNGNTYLQWYLQKPGQSPQLLIYKVSNRLYGVPDRFSGSGSGTDFTLKISRVEAEDVGVYYCFQGSHVPHTFGQGTKVEIK
0.22 nM	2.54e-05 s⁻¹	116000 M⁻¹ s⁻¹	0.232 nM	4.83e-05 s⁻¹	208000 M⁻¹ s⁻¹	VRDN-02065 (antibody, V domains shown) VH: QVQLQESGPGLVKPSETLSLTCTVSGYSITGGYLWNWIRQPPGKGLEWIGYIHYDGTNNYKPSLKDRVTISRDTSKNQFSLKLSSVTAADTAVYYCARYGRVFFDYWGQGTLVTVSS VL: DIVMTQSPLSLPVTPGEPASISCRSSQSIVHSNGNTYLQWYLQKPGQSPQLLIYKVSNRLYGVPDRFSGSGSGTDFTLKISRVEAEDVGVYYCFQGSHVHWTFGQGTKVEIK
0.19 nM	2.11e-05 s⁻¹	111000 M⁻¹ s⁻¹	0.284 nM	3.97e-05 s⁻¹	140000 M⁻¹ s⁻¹	VRDN-02063 (antibody, V domains shown) VH: QVQLQESGPGLVKPSETLSLTCTVSGYSITGGYLWNWIRQPPGKGLEWIGYISYHGTNNYKPSLKDRVTISRDTSKNQFSLKLSSVTAADTAVYYCARYGRVFFDYWGQGTLVTVSS VL: DIVMTQSPLSLPVTPGEPASISCRSSQSIVHSNGNTYLQWYLQKPGQSPQLLIYKVSNRLYGVPDRFSGSGSGTDFTLKISRVEAEDVGVYYCFHGSHVPWTFGQGTKVEIK
0.225 nM	2.13e-05 s⁻¹	94300 M⁻¹ s⁻¹	0.166 nM	2.82e-05 s⁻¹	170000 M⁻¹ s⁻¹	VRDN-02062 (antibody, V domains shown) VH: QVQLQESGPGLVKPSETLSLTCTVSGYSITGGYLWNWIRQPPGKGLEWIGYIHYDGTNNYKPSLKDRVTISRDTSKNQFSLKLSSVTAADTAVYYCARYGRVFFDYWGQGTLVTVSS VL: DIVMTQSPLSLPVTPGEPASISCRSSQSIVHSNGNTYLQWYLQKPGQSPQLLIYKVSNRLYGVPDRFSGSGSGTDFTLKISRVEAEDVGVYYCFHGSHVPWTFGQGTKVEIK
